Source: CN116478288A

Tests used:
[1] = biological target: 食蟹猴CD47 (on overexpressing CHO-K1 cells) (cynomolgus monkey); test: flow cytometry, control human IgG on CHO-K1 overexpressing cynomolgus CD47 (PBS background 92.8)
[2] = biological target: 人源CD47 (on cells: hCD47-overexpressing CHO-K1; Raji) (human) (UniProt Q08722); test: flow cytometry, control human IgG on CHO-K1 overexpressing human CD47 (PBS background 139.0)
UniProt Q08722, sequence (Q08722 19-323): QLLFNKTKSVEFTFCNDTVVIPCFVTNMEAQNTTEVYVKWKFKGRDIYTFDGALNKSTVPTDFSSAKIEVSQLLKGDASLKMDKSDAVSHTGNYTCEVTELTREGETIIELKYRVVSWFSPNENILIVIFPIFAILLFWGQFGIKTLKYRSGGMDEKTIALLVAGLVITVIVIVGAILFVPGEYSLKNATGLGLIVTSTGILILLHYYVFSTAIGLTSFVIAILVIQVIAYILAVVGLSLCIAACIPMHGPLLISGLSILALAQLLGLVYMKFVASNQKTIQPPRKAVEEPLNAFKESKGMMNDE

- MFI [1]: 71 MFI
- MFI [2]: 101 MFI
Substance: human IgG (antibody)
